Results: article PMC7265331

Biological target: Cab45 (UniProt Q9BRK5)
Assay: GFP-Cab45 oligomerization assay, confocal microscopy
Conditions: reference: GFP-Cab45-WT; sites S99,T131,S142,T193,S349

other: share of oligomers with maximum intensity <500 a.u.: same; reference 55
Substance: Cab45 (from UniProt Q9BRK5) GFP-Cab45-5pXE
